In patent US10654893B2, “Self-assembling peptide compositions” (3-D MATRIX, LTD., priority 2014, dated 2020):

How the values were obtained:
[1] = Formulation chart: concentration for desired storage modulus from linear trendline equations; type: physicochemical; details: linear trendline equation
Text: In some embodiments, peptide compositions with a specific desired stiffness may be formulated to have a particular peptide concentration determined using a mathematical model (i.e., the modulus trend-line equation). A formulation chart of peptide compositions may relate their concentrations in deionized water to their specific storage moduli, for example as is presented below in Table 3A. From such a chart, one skilled in the art may formulate a peptide composition with desired rheological properties by selecting a particular peptide and an appropriate peptide concentration so that the formulated composition has a desired stiffness.

[2] = pH adjustment with 0.1 N NaOH, pH and visual observation; type: physicochemical; details: for Appearance of composition: 2.5%
Protocol: In this Example, pH levels of peptide compositions was adjusted, for example, by addition of 0.1 N NaOH to 2 mL of a 2.5% peptide composition. pH and appearance of the adjusted compositions were observed. An acidic salt was added if the pH level was higher than the desired level.
With certain compositions, when pH levels of peptide compositions were higher than 3.5 (RADA16 (SEQ ID NO:1) and KLD12 (SEQ ID NO:2)) or 3.7 (IEIK13 (SEQ ID NO:3)), the peptide compositions began phase separation (i.e. becoming cloudy). In some embodiments, provided peptide compositions have a pH within the range of about 3.0 to about 3.7 (particularly for IEIK13 (SEQ ID NO:3)), or about 3.0 to about 3.5 (particularly for RADA16 (SEQ ID NO:1) and/or KLD12 (SEQ ID NO:2)).

[3] = test system: C57 BL/6 Mouse Mesenchymal Stem Cells (mMSCs); experiment: Cell viability (cytotoxicity) assay; type: cell-based
Protocol: A cell viability (cytotoxicity) assay was performed to measure the viability of C57 BL/6 Mouse Mesenchymal Stem Cells (mMSCs) with IEIK13 (SEQ ID NO:3), KLD12 (SEQ ID NO:2) and RADA16 (SEQ ID NO:1) compositions as described herein. mMSCs are a frequently used cell line in hydrogel tissue culture systems. […] The final concentration of sucrose was 10%. Cells were washed and re-suspended in 10% sucrose to a final concentration of 5 million cells/ml. Cells were centrifuged and the supernatant was removed. The cells were re-suspended in peptide compositions with 10% sucrose. The protocol was then followed for plating drop cultures and subsequent isolation as described in the PuraMatrix® Guidelines for Use (BD/Corning website). Results are shown in FIGS. 14-16 for RADA16 (SEQ ID NO:1), IEIK13 (SEQ ID NO:3), and KLD12 (SEQ ID NO:2), respectively.

[4] = Vial inversion test of 0.5% RADA16 gels with CaCl2; type: physicochemical
Protocol: FIGS. 41A-41D depict the protocol used to follow peptide dissolution and to assess effects of particular anions and/or cations, and/or their concentration, on certain RADA16 (SEQ ID NO:1) compositions. As shown, peptide powder in a vial was dissolved in deionized water with vortexing and sonication. The particular peptide composition utilized in this Example was a 1% composition of RADA16 (SEQ ID NO:1) that was mixed at a 1:1 ratio with a 2× salt solution to obtain a final concentration of 0.5% RADA16 (SEQ ID NO:1) and the desired molar concentration of salt.
The protocol depicted in FIGS. 41A-41D was followed to prepare 0.5% solutions of RADA16 (SEQ ID NO:1) with different concentrations of CaCl2. Mixed solutions were allowed to sit for a relaxation period of about 24 hours. Vials were then inverted upside down so that gel properties could be assessed.

[5] = Compositions with 0.9% NaCl at pH 3.4 (combined salt and pH); type: physicochemical
Protocol: IEIK13 (SEQ ID NO:3), KLD12 (SEQ ID NO:2), and RADA16 (SEQ ID NO:1) were dissolved in salt buffer (e.g. NaCl) and kept at elevated pH level adjusted with alkali salt buffer (e.g. NaOH). The compositions had their pH levels about 2.5-4.0 and lower ionic strength than their critical points. With respect to RADA16 (SEQ ID NO:1), KLD12 (SEQ ID NO:2) and IEIK13 (SEQ ID NO:3), peptide compositions were still clear with 0.9% NaCl (i.e. ionic strength of 0.15 M) at pH 3.4 (adjusted with NaOH). Rheological properties of RADA16 (SEQ ID NO:1) with 0.9% NaCl at pH 3.4 were stiffer than those of RADA16 control (i.e. no ionic strength and pH elevation) and RADA16 (SEQ ID NO:1) with 0.9% NaCl (no pH elevation).

Arg-Ala-Asp-Ala-Arg-Ala-Asp-Ala-Arg-Ala-Asp-Ala-Arg-Ala-Asp-Ala [RADA16]
Peptide concentration with deionized water to obtain desired storage modulus ([1]; storage modulus 25 Pa): 0.8
Peptide concentration with deionized water to obtain desired storage modulus ([1]; storage modulus 50 Pa): 0.9
Peptide concentration with deionized water to obtain desired storage modulus ([1]; storage modulus 75 Pa): 1.0
Peptide concentration with deionized water to obtain desired storage modulus ([1]; storage modulus 100 Pa): 1.2
Peptide concentration with deionized water to obtain desired storage modulus ([1]; storage modulus 125 Pa): 1.3
Peptide concentration with deionized water to obtain desired storage modulus ([1]; storage modulus 150 Pa): 1.5
Peptide concentration with deionized water to obtain desired storage modulus ([1]; storage modulus 175 Pa): 1.6
Peptide concentration with deionized water to obtain desired storage modulus ([1]; storage modulus 200 Pa): 1.7
Peptide concentration with deionized water to obtain desired storage modulus ([1]; storage modulus 225 Pa): 1.9
Peptide concentration with deionized water to obtain desired storage modulus ([1]; storage modulus 250 Pa): 2.0
Peptide concentration with deionized water to obtain desired storage modulus ([1]; storage modulus 275 Pa): 2.2
Peptide concentration with deionized water to obtain desired storage modulus ([1]; storage modulus 300 Pa): 2.3
Peptide concentration with deionized water to obtain desired storage modulus ([1]; storage modulus 325 Pa): 2.4
Peptide concentration with deionized water to obtain desired storage modulus ([1]; storage modulus 350 Pa): 2.6
Peptide concentration with deionized water to obtain desired storage modulus ([1]; storage modulus 375 Pa): 2.7
Peptide concentration with deionized water to obtain desired storage modulus ([1]; storage modulus 400 Pa): 2.9
Peptide concentration with deionized water to obtain desired storage modulus ([1]; storage modulus 425 Pa): 3.0
Peptide concentration with deionized water to obtain desired storage modulus ([1]; storage modulus 500 Pa): 3.4
Peptide concentration with deionized water to obtain desired storage modulus ([1]; storage modulus 600 Pa): 4.0
Peptide concentration with deionized water to obtain desired storage modulus ([1]; storage modulus 700 Pa): 4.5
Peptide concentration with deionized water to obtain desired storage modulus ([1]; storage modulus 800 Pa): 5.1
Observation ([2]; 0.1N NaOH 0 μL/mL, Conc. 2.5%, pH 2.2 (RADA16), 1.8 (IEIK13), 2.1 (KLD12)): Clear, thick gel
Observation ([2]; 0.1N NaOH 50 μL/mL, Conc. 2.38%, pH 2.3 (RADA16), 2.1 (IEIK13), 2.4 (KLD12)): Clear, thick gel
Observation ([2]; 0.1N NaOH 100 μL/mL, Conc. 2.27%, pH 2.4 (RADA16), 2.2 (IEIK13), 2.6 (KLD12)): Clear, thick gel
Observation ([2]; 0.1N NaOH 150 μL/mL, Conc. 2.17%, pH 2.7 (RADA16), 2.7 (IEIK13), 2.9 (KLD12)): Clear, thick, stiffer gel
Observation ([2]; 0.1N NaOH 200 μL/mL, Conc. 2.08%, pH 2.9 (RADA16), 3.0 (IEIK13), 3.3 (KLD12)): Clear, thick, stiffer gel
Observation ([2]; 0.1N NaOH 250 μL/mL, Conc. 2.0%, pH 3.2 (RADA16), 3.3 (IEIK13), 4.0 (KLD12)): Clear, thick, stiffer gel
Observation ([2]; 0.1N NaOH 275 μL/mL, Conc. 1.96%, pH 3.4 (RADA16), 3.7 (IEIK13)): Clear, thick, stiffer gel
Observation ([2]; 0.1N NaOH 300 μL/mL, Conc. 1.92%, pH 3.6 (RADA16), 4.0 (IEIK13), 4.7 (KLD12)): Slightly cloudy, brittle gel
Observation ([2]; 0.1N NaOH 350 μL/mL, Conc. 1.85%, pH 4.5 (RADA16), 4.5 (IEIK13), 5.2 (KLD12)): Cloudy, phase-separated
Peptide composition pH ([2]; 0.1N NaOH added in 2.5% composition 0 μL/mL, Conc. 2.5%): 2.2
Peptide composition pH ([2]; 0.1N NaOH added in 2.5% composition 50 μL/mL, Conc. 2.38%): 2.3
Peptide composition pH ([2]; 0.1N NaOH added in 2.5% composition 100 μL/mL, Conc. 2.27%): 2.4
Peptide composition pH ([2]; 0.1N NaOH added in 2.5% composition 150 μL/mL, Conc. 2.17%): 2.7
Peptide composition pH ([2]; 0.1N NaOH added in 2.5% composition 200 μL/mL, Conc. 2.08%): 2.9
Peptide composition pH ([2]; 0.1N NaOH added in 2.5% composition 250 μL/mL, Conc. 2.0%): 3.2
Peptide composition pH ([2]; 0.1N NaOH added in 2.5% composition 275 μL/mL, Conc. 1.96%): 3.4
Peptide composition pH ([2]; 0.1N NaOH added in 2.5% composition 300 μL/mL, Conc. 1.92%): 3.6
Peptide composition pH ([2]; 0.1N NaOH added in 2.5% composition 350 μL/mL, Conc. 1.85%): 4.5
Appearance of composition ([2]; pH about 3.5 (FIG. 12)): clear
Appearance of composition ([2]; pH=3.6 (FIG. 12)): slightly cloudy
Appearance of composition ([2]; pH=4.0 (FIG. 12)): precipitated
Observation ([2]; pH 7.0, NaOH volume and conc. not given): Cloudy, phase-separated
Cell viability at 0.5% versus 0.25% [3]: significantly higher than that at 0.25%
Gel functionality on vial inversion ([4]; 0.250 M CaCl2): fully functional gel
Gel functionality on vial inversion ([4]; 0.500 M CaCl2): semi-functional gel
Gel functionality on vial inversion ([4]; 1M CaCl2): non-functional gel
Appearance of composition ([5]; 0.9% NaCl (ionic strength of 0.15 M) at pH 3.4 (adjusted with NaOH)): still clear
Stiffness versus control and versus 0.9% NaCl without pH elevation ([5]; 0.9% NaCl at pH 3.4, 2.5% (FIG. 40)): stiffer
